Biological target: GST-MICAL-L2-ACT (aa 261-1009) (mouse, UniProt Q3TN34 261-1009)
Assay: pull-down

Sequence of GST-MICAL-L2-ACT (aa 261-1009) (Q3TN34 261-1009): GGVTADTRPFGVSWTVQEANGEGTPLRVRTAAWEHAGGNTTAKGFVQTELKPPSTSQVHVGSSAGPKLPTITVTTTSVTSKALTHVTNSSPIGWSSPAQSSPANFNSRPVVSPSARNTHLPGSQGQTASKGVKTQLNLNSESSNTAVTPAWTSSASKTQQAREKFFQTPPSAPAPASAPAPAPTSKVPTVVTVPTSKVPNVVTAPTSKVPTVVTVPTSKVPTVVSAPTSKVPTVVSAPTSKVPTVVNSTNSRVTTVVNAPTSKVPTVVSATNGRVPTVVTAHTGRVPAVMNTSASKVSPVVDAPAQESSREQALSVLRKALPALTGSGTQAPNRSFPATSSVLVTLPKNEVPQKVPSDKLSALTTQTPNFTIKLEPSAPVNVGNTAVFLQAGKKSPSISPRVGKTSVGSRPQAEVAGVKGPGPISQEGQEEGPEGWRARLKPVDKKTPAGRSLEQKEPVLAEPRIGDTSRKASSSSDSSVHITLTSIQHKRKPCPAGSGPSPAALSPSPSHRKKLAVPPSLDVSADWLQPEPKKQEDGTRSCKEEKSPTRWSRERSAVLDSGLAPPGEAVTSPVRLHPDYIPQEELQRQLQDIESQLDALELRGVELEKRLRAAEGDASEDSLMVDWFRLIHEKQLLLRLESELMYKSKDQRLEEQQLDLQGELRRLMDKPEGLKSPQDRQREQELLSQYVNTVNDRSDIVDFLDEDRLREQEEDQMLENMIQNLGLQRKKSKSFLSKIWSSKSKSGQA

fold of pull-down, lysates of insulin-stimulated against basal cells: ~2 fold
B1: GFP-Rab13 (expressed in L6-GLUT4myc muscle cells) (natural protein, UniProt P51153 1-203, looked up)
chain: MAKAYDHLFKLLLIGDSGVGKTCLIIRFAEDNFNNTYISTIGIDFKIRTVDIEGKKIKLQVWDTAGQERFKTITTAYYRGAMGIILVYDITDEKSFENIQNWMKSIKENASAGVERLLLGNKCDMEAKRKVQKEQADKLAREHGIRFFETSAKSSMNVDEAFSSLARDILLKSGGRRSGNGNKPPSTDLKTCDKKNTNKCSLG
